Measurements published in paper PMC9934072, “The mechanism of thia-Michael addition catalyzed by LanC enzymes” (Proceedings of the National Academy of Sciences of the …, 2023).
Square brackets hold non-standard residues; d marks the D form. Ends that are not written are not given here. Dhb = C/C=C(\N)C(=O)O

Legend:
[1] = target: (Z)-Dhb-containing 13-mer Erk peptide (DHTGFL-Dhb-EYVATR)
[2] = target: T1, human LanCL1, wild type (His6-LanCL1) (human, UniProt O43813 1-399); experiment: crystal structure; cocrystals of His6-LanCL1 with GSH soaked in precipitant solution with 2 to 5 mM Dhb-Erk peptide (30, 60 or 90 min); 1.91 Å; the crystal holds the product of GSH addition to the peptide; settings: both partners purified
T1 construct: LanCL1 (LanC-like protein 1), human; The tag is named on the protein for crystallisation; for the fluorescence polarisation nothing is said of it; also called WT LanCL1; native LanCL1; source: E. coli Rosetta(DE3), pET15b, purified (HisTrap, Superdex 200)

[3] = target: T2, LanCL1 Wild Type (human LanC-like protein 1) (human, UniProt O43813 1-399); experiment: fluorescence polarisation; competition: 20 μM LanCL1 WT, 20 nM fluorescein-Dha-Erk, acetyl peptide from 1000 μM in 2-fold dilutions; 15 min incubation; triplicates; dose-response fit, Ki = IC50/(1+[L]/Kd); settings: both partners purified
T2 construct: LanC-like protein 1 (LanCL1), human; also called LanCL1 WT; WT-LanCL1; source: E. coli Rosetta 2 (DE3), purified (HisTrap Ni-NTA, PD-10 desalting)
T2 sequence (O43813 whole entry): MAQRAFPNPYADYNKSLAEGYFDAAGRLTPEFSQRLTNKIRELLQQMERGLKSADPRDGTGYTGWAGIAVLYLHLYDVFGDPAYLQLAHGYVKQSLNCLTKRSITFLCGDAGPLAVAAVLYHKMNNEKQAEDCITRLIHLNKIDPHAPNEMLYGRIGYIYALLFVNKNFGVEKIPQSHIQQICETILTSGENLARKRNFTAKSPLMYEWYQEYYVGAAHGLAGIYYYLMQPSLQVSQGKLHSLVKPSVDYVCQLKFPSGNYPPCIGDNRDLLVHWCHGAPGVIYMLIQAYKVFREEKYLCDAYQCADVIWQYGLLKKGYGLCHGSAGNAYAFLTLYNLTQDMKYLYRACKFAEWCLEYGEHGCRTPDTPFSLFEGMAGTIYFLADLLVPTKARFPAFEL

T1 sequence (O43813 whole entry): as above

LanCL1 C264A (from UniProt O43813 1-399) (enzyme)
K (m,peptide) of GSH addition to (Z)-Dhb-Erk peptide (LC-MS initial rates, saturating GSH) [1]: 85 µM

LanCL1 C264A/H277A (from UniProt O43813 1-399) (enzyme)
K (m,peptide) of GSH addition to (Z)-Dhb-Erk peptide (LC-MS initial rates, saturating GSH) [1]: 240 µM

LanCL1 C264A/H277D (from UniProt O43813 1-399) (enzyme)
kcat/K (m,peptide) of GSH addition to (Z)-Dhb-Erk peptide; substrate saturation could not be achieved [1]: 6.17 M⁻¹ s⁻¹

LanCL1 C264A/H277K (from UniProt O43813 1-399) (enzyme)
kcat/K (m,peptide) of GSH addition to (Z)-Dhb-Erk peptide; substrate saturation could not be achieved [1]: 2.67 M⁻¹ s⁻¹

LanCL1 C264A/H277N (from UniProt O43813 1-399) (enzyme)
K (m,peptide) of GSH addition to (Z)-Dhb-Erk peptide (LC-MS initial rates, saturating GSH) [1]: 417 µM

LanCL1 C264A/H277Y (from UniProt O43813 1-399) (enzyme)
K (m,peptide) of GSH addition to (Z)-Dhb-Erk peptide (LC-MS initial rates, saturating GSH) [1]: 69 µM

B1: (Z)-Dhb-containing 13-mer Erk peptide (DHTGFL-Dhb-EYVATR) (peptide)
peptide: DHTGFL[Dhb]EYVATR
modifications: also: in the crystal Dhb reacted with GSH to form a methyllanthionine
notes: In PDB 8CZK density was seen only for the GFL-Dhb-EY segment, covalently joined to glutathione; also called Dhb-Erk; Dhb-Erk peptide
binding result [2]: binds

B2: acetyl-Ala-Erk peptide (peptide)
peptide: Ac-DHTGFLAEYVATR
notes: Numbers count on: the synthetic 13-mer; Its preparation is not described; also called Ac-Ala-Erk
IC50 [3]: 850 ± 490 µM
Ki [3]: 849 ± 489 µM
